The record followed here is PMC4204887.

The target in assay [1] is wild-type transthyretin (WT TTR) (human) (UniProt P02766). The experiment in a line: native gel or EMSA. A general note: Mobility shift assays separate free from complexed probe on a gel.
Assay [2] concerns the target Val122Ile transthyretin (V122I TTR) (human) (UniProt P02766). The experiment in a line: native gel or EMSA.

In assay [1], “tandem flag-tagged wild-type transthyretin (FT2·WT TTR) (from UniProt P02766 21-147) (natural protein)” returned a Kex (subunit exchange rate constant) of 0.28 h⁻¹ and a t50 of formation of the 2 FT2/2 TTR heterotetramer of 12.5 h.

The substance “tandem flag-tagged Val122Ile transthyretin (FT2·V122I TTR) (from UniProt P02766 21-147) (natural protein)” gave a t50 of formation of the 2 FT2/2 TTR heterotetramer in assay [2] of 2.84 h.
